Assay results taken from patent US20120263644A1.

Tests used:
[1] = target: constitutively active LFA-1 expressed on Jurkat T-cell line J-β2.7/LFA-1Δ; assay: cell-based or functional assay
[2] = target: leukocyte function antigen-1 (LFA-1), composed of CD11a and CD18, on human white blood cells (human) (UniProt P20701); assay: cell-based or functional assay
Chain of leukocyte function antigen-1 (LFA-1), composed of CD11a and CD18, on human white blood cells (human) (P20701 26-1170, chain 1 of 2): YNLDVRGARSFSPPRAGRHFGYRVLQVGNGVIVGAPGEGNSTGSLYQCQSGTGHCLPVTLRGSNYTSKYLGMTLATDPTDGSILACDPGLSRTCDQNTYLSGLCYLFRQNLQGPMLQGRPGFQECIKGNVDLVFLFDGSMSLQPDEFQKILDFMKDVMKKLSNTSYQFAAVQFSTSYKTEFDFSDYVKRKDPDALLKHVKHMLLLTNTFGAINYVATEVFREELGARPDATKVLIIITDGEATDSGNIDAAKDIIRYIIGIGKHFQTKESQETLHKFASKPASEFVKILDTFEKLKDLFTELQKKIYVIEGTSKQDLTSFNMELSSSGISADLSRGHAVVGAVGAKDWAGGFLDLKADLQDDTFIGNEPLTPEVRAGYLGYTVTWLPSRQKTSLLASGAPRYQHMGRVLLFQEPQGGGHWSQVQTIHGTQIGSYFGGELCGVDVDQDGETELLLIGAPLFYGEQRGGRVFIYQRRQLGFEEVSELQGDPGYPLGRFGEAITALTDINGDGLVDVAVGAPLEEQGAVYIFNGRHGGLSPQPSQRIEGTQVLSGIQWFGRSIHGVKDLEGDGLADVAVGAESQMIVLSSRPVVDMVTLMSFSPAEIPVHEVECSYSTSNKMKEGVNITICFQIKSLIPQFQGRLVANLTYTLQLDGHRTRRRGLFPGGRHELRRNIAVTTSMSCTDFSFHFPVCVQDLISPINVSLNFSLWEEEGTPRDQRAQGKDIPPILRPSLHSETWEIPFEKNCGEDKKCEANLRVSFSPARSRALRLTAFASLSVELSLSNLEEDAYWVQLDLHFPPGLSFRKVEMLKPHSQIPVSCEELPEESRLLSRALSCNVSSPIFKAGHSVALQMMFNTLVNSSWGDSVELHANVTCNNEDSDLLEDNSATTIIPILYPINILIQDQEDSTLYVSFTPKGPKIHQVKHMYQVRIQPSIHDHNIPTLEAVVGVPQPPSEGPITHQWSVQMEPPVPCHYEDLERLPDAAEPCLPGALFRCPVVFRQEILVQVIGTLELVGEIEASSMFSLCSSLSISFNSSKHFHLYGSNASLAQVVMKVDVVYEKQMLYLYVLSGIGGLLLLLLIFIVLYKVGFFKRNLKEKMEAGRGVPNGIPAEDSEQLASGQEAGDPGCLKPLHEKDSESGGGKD
Chain of leukocyte function antigen-1 (LFA-1), composed of CD11a and CD18, on human white blood cells (human) (P05107 23-769, chain 2 of 2, further chain): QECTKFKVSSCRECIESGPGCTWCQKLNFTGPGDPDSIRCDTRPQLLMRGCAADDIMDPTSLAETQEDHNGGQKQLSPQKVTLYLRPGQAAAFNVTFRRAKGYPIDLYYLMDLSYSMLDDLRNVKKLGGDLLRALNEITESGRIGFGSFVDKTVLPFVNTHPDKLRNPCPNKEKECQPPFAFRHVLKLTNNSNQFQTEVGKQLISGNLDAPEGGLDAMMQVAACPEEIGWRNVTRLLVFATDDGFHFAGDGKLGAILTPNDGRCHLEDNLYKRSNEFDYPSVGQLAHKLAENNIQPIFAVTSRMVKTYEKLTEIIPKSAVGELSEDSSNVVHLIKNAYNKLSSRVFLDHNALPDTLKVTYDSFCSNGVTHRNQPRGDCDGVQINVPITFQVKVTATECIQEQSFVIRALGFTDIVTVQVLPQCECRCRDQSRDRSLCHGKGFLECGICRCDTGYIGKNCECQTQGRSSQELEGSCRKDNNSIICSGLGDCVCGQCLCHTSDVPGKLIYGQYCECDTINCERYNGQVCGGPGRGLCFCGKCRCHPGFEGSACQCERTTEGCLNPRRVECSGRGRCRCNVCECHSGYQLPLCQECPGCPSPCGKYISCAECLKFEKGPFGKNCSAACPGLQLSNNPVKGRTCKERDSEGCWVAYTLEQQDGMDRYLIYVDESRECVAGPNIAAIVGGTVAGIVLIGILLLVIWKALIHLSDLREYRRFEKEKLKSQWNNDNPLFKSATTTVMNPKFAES

B1: leukotoxin (LtxA) of Aggregatibacter actinomycetemcomitans strain NJ4500 (protein)
chain: MATTSLLNTKQQAAQFANSVADRAKENIDAAKEQLQKALDKLGKTGKKLTLYIKNYKKGNGLTALIKAAQKLGIEVYHEGKDGPALTNGILNTGKKLLGLTERGLTLFAPELDKWIQGNKHLSNSVGSTGNLTKAIDKVQSVLGTLQAFLNTAFSGMDLDALIKARQNGKNVTDVQLAKASLNLINELIGTISSITNNVDTFSKQLNKLGEALGQVKHFGSFGDKLKNLPKLGNLGKGLGALSGVLSAISAALLLANKDADTATKAAAAAELTNKVLGNIGKAITQYLIAQRAAAGLSTTGPVAGLIASVVSLAISPLSFLGIAKQFDRARMLEEYSKRFKKFGYNGDSLLGQFYKNTGIADAAITTINTVLSAIAAGVGAASAGSLVGAPIGLLVSAITSLISGILDASKQAVFEHIANQLADKIKAWENKYGKNYFENGYDARHSAFLEDSLKLFNELREKYKTENILSITQQGWDQRIGELAGITRNGDRIQSGKAYVDYLKKGEELAKHSDKFTKQILDPIKGNIDLSGIKGSTTLTFLNPLLTAGKEERKTRQSGKYEFITELKVKGRTDWKVKGVPNSNGVYDFSNLIQHAVTRDNKVLEARLIANLGAKDDYVFVGSGSTIVNAGDGYDVVDYSKGRTGALTIDGRNATKAGQYKVERDLSGTQVLQETVSKQETKRGKVTDLLEYRNYKLDYYYTNKGFKAHDELNSVEEIIGSTLRDKFYGSKFNDVFHGHDGDDLIYGYDGDDRLYGDNGNDEIHGGQGNDKLYGGAGNDRLFGEYGNNYLDGGEGDDHLEGGNGSDILRGGSGNDKLFGNQGDDLLDGGEGDDQLAGGEGNDIYVYRKEYGHHTITEHSGDKDKLSLANINLKDVSFERNGNDLLLKTNNRTAVTFKGWFSKPNSSAGLDEYQRKLLEYAPEKDRARLKRQFELQRGKVDKSLNNKVEEIIGKDGERITSQDIDNLFDKSGNKKTISPQELAGLIKNKGKSSSLMSSSRSSSMLTQKSGLSNDISRIISATSGFGSSGKALSASPLQTNNNFNSYANSLATTAA
sensitivity to LtxA-mediated toxicity, J-β2.7/LFA-1Δ cells against J-β2.7/LFA-1 wt cells [1]: 10 times | 50% effective dose (ED50) of LtxA against gp120-treated CD4 T cells, cell viability by cellular ATP after 20 hrs [2]: 0.367 µg/mL | ED50 of LtxA against mutant gp120-treated CD4 T cells, cell viability by cellular ATP after 20 hrs [2]: 0.44 µg/mL | ED50 of LtxA against untreated CD4 T cells, cell viability by cellular ATP after 20 hrs [2]: 0.437 µg/mL | IC50 of inhibition of proliferation of Jurkat cells after 72 hours (CellTiter Glo) [2]: 0.25 µg/mL | percent of CD3+ T lymphocytes expressing high levels of LFA-1 after LtxA treatment of PBMCs (approximately 11% before), flow cytometry [2]: 0.4% | percent of CD4 T cells activated by surface-bound anti-CD3 and anti-CD28 killed by LtxA at 390 and 780 ng/ml [2]: 100% | percent of untreated CD4 T cells susceptible to LtxA at 390 and 780 ng/ml [2]: 50%
